# Experimental data reported in the DeepSol protein solubility set.
# Test: soluble on expression in E. coli; label from the status in PepcDB or PDB records
row,Sequence,soluble on expression in E. coli
1,MSLSVRFAGMATCVPKRVVSNLTDCKPQIRPERERLVRNIGIELRRLTQEWQCFSDLAFDAASKLIESLEWKLEEIDALIVVTQSPDYLAPATAIILQDRLGLPHTTLAFDVNLGCSGYPFGLHLLGSLISAGGIKKGLVLVGDSGAQLNDPIFSDAGTATAMEFCADAPPMYFDLNSDGSGHKAIILPVGGHREPVGIQHLVPFRENENDHWHRAIDLQLDGTAVLSFSTQRVPPAVEKLLEYANASKDEVDYFIFHQANRMINETIRKKLALPVEKVPSTLRDFGNTSGASLPVTMTARINKQLEEGSKRLVLSGFGIGLSWGTCLVDIQGAKFPDLIESEGHHHHHH,not soluble
2,MSLSVTRENFDEWMVPVYVPAPFIPVRGEGSRLWDQQGKEYIDFAGGIAVNALGHAHPALREALNEQANRFWHIGNGYTNEPALRLAKKLIDATFAERVFFCNSGAEANEAALKLARKYAHDRVGNHKSGIVAFKNAFHGRTLFTVSAGGQPTYSQDFAPLPPDIRHAAYNDLNSASALIDDNTCAVIVEPVQGEGGVIPATKAFLQGLRELCDRHQALLIFDEVQTGVGRTGELYAYMHYGVTPDILTTAKALGGGFPIGAMLTTQDYASVMTPGTHGTTYGGNPLATAVAGKVLDIINTPEMQNGVRQRHDAFIERLNTLNVRFGMFSEIRGLGLLLGCVLQTEFAGKAKLIAQEAAKAGVMVLIAGGDVVRFAPALNVSDEEIATGLDRFALACERLQTGGVPCG,not soluble
3,MSLSYGVKLHVWGERALFTRPEMKVERVSYDIITPSAARGILEAIHWKPAIRWMVDSIQVLKPIRFESIRRNEVGGKLSAASVSKAIKAGRTDTLVSYVEEDRQQRAATLLRDVGYVIAAHFELTDKAGADDNVGKHLDIFNRRARRGQCFQAPCLGTREFPASFALIEDDAAMPAADATLAGERDLGWMLHDIDFADGMTPRFFRARMVDGQVEVPAPENGGVRAEGHHHHHH,soluble
4,MSLSYLPGTTFEGQWESLYFGNNIKERLYSYATISLKIARFKQTGDSNQEDITTLITNNKLLLVHGPPGTGKTTLCKALCQKLSVRREFSDGSDTIDTNYKGIIIELSCARIFSKWFGESSKNISIVFKDIEELLKVNEGRGIFICLLIDEVEAIASSRTNLSSRNESTDGIRVVNTLLTQLDRLKKYHNFLALATSNLLDSLDDAFVDRADGVFYVGNPTAEGILHILKVCIEEMITSGIILFHARSTGVKFFNKYQDILRKIAIKCSVCFFLLFYFYDSFSFFPSEGHHHHHH,soluble
5,MSLTATAPCPYACGLCSLHENHSALVNIVVTNRCDLSCFYCFFYAERAGYIYEPSIEQIKFMVRQVARQRQGSDVHVNIQITGGEPTVREDLVDVVKAIREAGAHYIQLNTNGINVARRYLDNPPGAIDYVRSLREAGVSVVYMSFDGVTPKVNWKNHYEAPFALKAFQEGGLDNVVLVPTVIRTINDHEVGDIIRFAGKHIDVVRGVNFQPVSLTGMMRKHERERMRITIPDVIKRIEEQTDGQIPMDAWYPVPVVAKFVKAIDALTGKLYDTLSNHPACGSATYVFALERDRYGVPRRFLPITEVIDVEGFIEFLDEERIKLEHNSGRLSRLKVAAEIVWRARRFVDFDREGHHHHHH,not soluble
6,MSLTDSKYISIKGARVNNLKNIDVNIPRNKLVVITGLSGSGKSSLAFDTLYAEGQRRYVESLSSYARQFLGRMSKPECDFIKGIPPAIAIEQKVNSRNPRSTVGTSTEIYEYLRLLYARVGKTYSPVSGEEVKKHSIEDIVNCMLSYPEGTRYTVLTQIYLHDGRTLEQQLEIDRKQGFNRLEVNGEMVRIDEYAAGKEDVVYLLVDRMTAAKSKDAISRLTDSAETAMYEGDGMCMLRFYQPDGTTRLHTFSTKFEADGMTFEEPNDQMFSFNSPIGACPVCEGFGKVIGIDEHLVVPNRSLSVYDGAIVCWRGEKMGEWREELIHNAEKFNFPIFTPYYELTDEQRRVLWEGNQYFHGINDFFKMLEENQYKIQYRVMLARYRGKTLCPKCHGTRLKPEAGYVRVGGKNISELVDLPITELQKFFDSLTLNEHDQAVARRILTEINSRIRFLIDVGLGYLTLNRLSNSLSGGESQRINLATSLGSSLVGSLYILDEPSIGLHSRDTDRLVHVLRQLQQLGNTVVVVEHDEEIIRAADYIIDIGPNAGRLGGQVVYEGDMKDLKKGSNSYTVKYLLGEETIPVPEHRRPWNNYIEIKGARENNLKGVDARFPLNVMTVVTGVSGSGKSTLVRDIFYRALKRELDECSERPGEFVSIEGDLRNLRNVEFVDQNPIGKSSRSNPVTYIKAYDEIRKLWADQPLAKQMGYTAGHFSFNNEGGRCEECKGDGTITVEMQFMADLVLECESCHGKRFKADTLEVKFQDKNIYDILEMTVNQAIEFFTEHGQKKVVKKLIPLQDVGLGYIKLGQSSSTLSGGENQRVKLAYYLSQEKADPTLFIFDEPTTGLHFHDIRKLLDAFDALIRRGHSIVIIEHNMDVIKCADYVIDLGPEGGDKGGNIVATGTPEEVAACAASYTGQFLQEKLNHLEGHHHHHH,soluble
7,MSLTEEQLLFRIALTHVKGVGSVLARQLLSAMGSPEAIFSDRKELVQRLPKAPRRLLDAIFSPSVMEEARRKLDQALKAGLNMYFITDDNYPYRLKECVDAPILLYSKGNVDLSPRRVLSIVGTRNITAYGRTATERIVSGLAETIPDLLIVSGLAYGVDVAAHKAALDNGLPTVAVLAHGLDRIYPSGHRSIAMEMLRNGGLLTDYPMGTEPERFNFVGRNRIVAGLSDATLVIESAEKGGSLITAGLAFGYNREVLALPGRATDSRSAGCNALIRDQKAALVSSAQDVLTLLDWSSTIDAKPQTEGHHHHHH,soluble
8,MSLTEFPGIVKEYEAITRYCGFNSIEAGKTMGLSPYGEPNPEIPPMFVNGFGNRNLFKPNYPNGAYVIEDRYKIIRDDYISHNGEVGTGEYTQVQKDLAYAIQKESEDQMCALIQKAHEMTGEKNIVICGGYGLNCVANYKFKQRFPNLNIYVEPISHDGGTSMGGAYHVYYNDYVKTGKESRKVEPPKTIYYGPQYDPDTYLNYIHEYPSAKVTDASYDSVARLIREGNIVTIFQGRSEAGPRALGNRSILFDPTIKDGKDIVNSVKHREFFRPFACSILADKVHDWFDLAGMDDSPSMMYAVDALPGVAEKIPSVIHVDNTCRIQTVTKEQNEHYYNLISAFEKLSNTPILFNTSFNLGGDPLVEDIDDALDTLSTSDINYMYLPEIQKLVELKTREMQDTRQQPINEGHHHHHH,soluble
9,MSLTELPKEFLEDIEEILKDEYDDFIKSYEESKTTGLRINTLKIDKKKLFDLELFDLNQIPWAEEGFYYDDKIDRPGRNPLHEAGAYYLQEPSAMSVIPKADIKEGEKVLDMCAAPGGKSTYILSKLNDTGLLVSNEINASRIKALGENLERFGARNCIITNTDSNSLRKTFNGYFDKVIIDAPCSGQGMFRKDEVAISDWSYAKVVECQSIQKEIIRDGYKMLKKDGILIYSTCTFSREENEHVINEFISEYPHAELIEMERLWPHKIKGEGHFVAKIKKLEEEECNVKELKIKNLDKEIKDYREFEKKFLKVDFYSNKKNKFYLRGENLYLLPEIYPDTKKLKVLRYGLHLGVLKKNRFEPSHALSHYLKVEDVKNVENFSVQSESILKYLKGDVVNSNDSRGWVLVSVEGIPLGWGKESSGVIKNHYPKGLRKVEGHHHHHH,soluble
10,MSLTGGVISGLGKGTITSSIGHILKDSGIKVSAVKIDPYINYDAGTMNPYQHGEVFVLDDGGEVDLDLGNYERFMNINLSRDNNITTGKVYLEVIQKERHGDYLGKTVQIIPHITDEIKRRIREVARTSGADVVLIEVGGTVGDIESMPFLEALRQLKREEQNVVFAHVTLVPEIGPTMEQKTKPTQHSVKALREIGIQPDIIFARSKQKLTEETKSRISLFTDVPVEGIISVSDVENVYLLPQMMVNEGLITRLSKLLNMNIEYRDSWTSYAENIRHPRDRVKVAIVGKYVDLHDAYISHKEAFSHVTGNTGIAVDIMWIDSEKVKNDQSVLSEADAILIPGGFGYRGVEGKIAATRYAMENGVPFLGICLGFQVAVIAVARYVLGLDGANSTEFDEKTKYPVVDILPEQRGVKDMGGTMRLGSKKVVIKKGTLAHRIYGADVIYERHRHRYEVNPDYIDMIEKAGFKFSATDEEGIRMEILERPGDESFIATQYHSEFKSRPLDPSKVHLHLVEQALIFKHRRMGENHEGYATAASSQGQEGHHHHHH,soluble
